Experimental data reported in PMC3977038.

What was measured:
[1] = biological target: aεFab^1–IgE-Fc complex (one aεFab bound to IgE-Fc) (UniProt P01854); test: SPR
[2] = biological target: Fcε3-4 sub-fragment of IgE-Fc (human); test: ITC

- Kd [1]: 1400 nM
- Kd2 (second site, sequential two-site fit) [2]: 0.98 µM
B1: anti-ε-chain Fab (aεFab), anti-human IgE-Fc antibody in human IgG1 Fab format (Fab, V domains shown)
VH: QVQLQQSGPGLVKPSQTLSLTCGISGDSVSSNSAAWNWLRQSPSRGLEWLGRTYYRSKWYNDYAVSMKSRITINPDTSRNQFSLQLNSVTPEDTAVYYCARDGEISYDYYYYGMDVWGRGTLVTVSS
VL: QSVLTQPPSASGTPGQRVTISCSGSSSNIGNNGVNWYQQVPGKPPKLLIYYDDLLPSGVSDRFSGSKSGTSASLAISGLQSEDEADYYCEAWDDSLDGVVFGGGTKLTVL
